The values that follow come from article PMC11444262, “Direct targeting of host microtubule and actin cytoskeletons by a chlamydial pathogenic effector protein” (Journal of Cell Science, 2024).

This experiment concerns the target Taxol-stabilized microtubules (UniProt P02550 1-451). Kind of experiment: co-sedimentation; equilibrium binding of 100 nM GST–CPn0572^595-755 with increasing amounts of Taxol-stabilized MTs; apparent Kd. Conditions: both partners purified.

Taxol-stabilized microtubules, sequence (P02550 whole entry, chain 1 of 2): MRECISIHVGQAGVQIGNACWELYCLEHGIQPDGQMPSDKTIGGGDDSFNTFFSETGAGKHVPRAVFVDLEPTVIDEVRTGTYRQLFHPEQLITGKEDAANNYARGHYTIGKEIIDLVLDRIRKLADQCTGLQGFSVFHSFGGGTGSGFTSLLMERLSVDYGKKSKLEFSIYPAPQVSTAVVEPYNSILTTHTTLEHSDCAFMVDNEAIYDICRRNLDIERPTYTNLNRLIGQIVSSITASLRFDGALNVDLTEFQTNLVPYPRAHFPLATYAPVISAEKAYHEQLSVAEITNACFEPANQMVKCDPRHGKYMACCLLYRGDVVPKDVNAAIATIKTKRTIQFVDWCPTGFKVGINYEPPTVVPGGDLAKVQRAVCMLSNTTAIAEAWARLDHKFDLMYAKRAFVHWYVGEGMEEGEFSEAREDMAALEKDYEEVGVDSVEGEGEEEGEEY
Taxol-stabilized microtubules, sequence (P02554 whole entry, chain 2 of 2, further chain): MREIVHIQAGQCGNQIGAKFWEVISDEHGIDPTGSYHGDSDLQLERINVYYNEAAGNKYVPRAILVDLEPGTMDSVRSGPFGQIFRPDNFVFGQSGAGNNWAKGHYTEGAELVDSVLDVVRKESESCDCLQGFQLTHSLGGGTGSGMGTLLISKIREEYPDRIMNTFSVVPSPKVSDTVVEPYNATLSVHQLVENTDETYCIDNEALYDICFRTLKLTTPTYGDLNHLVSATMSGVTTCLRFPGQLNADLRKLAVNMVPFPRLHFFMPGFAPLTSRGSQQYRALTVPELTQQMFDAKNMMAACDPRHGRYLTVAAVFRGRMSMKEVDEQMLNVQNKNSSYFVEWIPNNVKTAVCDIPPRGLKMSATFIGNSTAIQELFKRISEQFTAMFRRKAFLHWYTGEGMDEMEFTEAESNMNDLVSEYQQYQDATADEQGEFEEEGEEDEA

B1: GST–CPn0572^595-755 (domain or fragment, Chlamydia pneumoniae (Cpn GiD), UniProt Q9Z7Y1 595-755, looked up)
chain: VATTITPQARTASTSTTSIGTGTESTSTTSTGTGTGSVSTQSTGVGTPTTTTRSTGTSATTTTSSASTQTPQAPLPSGTRHVATISLVRNAAGRSIVLQQGGRSQSFPIPPSGTGTQNMGAQLWAAASQVASTLGQVVNQAATAGSQPSSRRSSPTSPRRK
notes: Cloned into a modified pGEX-5X-1 in which the factor Xa site is replaced by a TEV protease site; source: E. coli Rosetta (DE3), purified (glutathione agarose beads)
Regarding B1, the Kd amounted to 70 nM.
